Experimental data taken from paper PMC10916747, “Safety, biodistribution and radiation dosimetry of the Arg-Gly-Asp peptide ^99mTc-maraciclatide in healthy volunteers” (Nuclear Medicine Communications, 2024).
Numbered stars: 1 amine (or outer) side, 2 acyl side, 3 side chain; on linkers, the order of the positions; unused ones are H or OH. Bridge positions count the residues as written; N and C are the ends. Side chains are listed from the residue outwards. Peptide text beside a SMILES is read from it. * marks the point of attachment. X1 = C/C(=N\O)C(C)(C)NCCC(CCNC(C)(C)/C(C)=N/O)CCN*; Glutaryl = O=C(CCCC(=O)[*:2])[*:1]; X2 = NC(=O)COCC(=O)NCCOCCOCCOCCN*

Experiments:
[1] = test system: healthy volunteers; parameters: method as in PMID 17353156; conditions: human urine, highest dose group (150 micrograms maraciclatide), reversed-phase LC ion-trap MS; cited from earlier work
[2] = test system: healthy volunteers; experiment: Phase 1 safety assessment (adverse events, vital signs, ECG, laboratory parameters)
Protocol: In 2003, a phase 1, placebo-controlled, observer-blinded, randomised, single ascending-dose study was performed. The study aimed to assess the safety of three intravenous levels of maraciclatide and the biodistribution and radiation dosimetry of ^99mTc-maraciclatide in healthy volunteers, assessing the potential of ^99mTc-maraciclatide as a radiopharmaceutical for diagnostic imaging.
Safety data on vital signs (heart rate, blood pressure, temperature, and oxygen saturation), electrocardiograms (ECG), laboratory parameters and physical examinations (general appearance, lung, abdominal, cardiovascular, and neurological exam by a qualified clinician) were measured prior to administration, and at multiple time points up to 7 days following administration. Based on clinical assessment, new abnormal or worsening clinical findings were defined as a change from the participant’s normal baseline to abnormal. All abnormal changes were recorded as adverse events (AEs).
Safety assessments were performed by an observer blinded to the administration of the placebo and ^99mTc-maraciclatide. A thorough review of safety data was performed before the decision was made to escalate to the higher dose in participants.

[3] = test system: integrin receptor αvβ3; conditions: background statement, no reference printed; cited from earlier work
[4] = clinical; parameters: species or system human; conditions: human, in vivo, iv
Protocol: (§1) To calculate ^99mTc-maraciclatide ex-vivo activity, blood, plasma, urine, and faeces were collected at various time points after administration. Blood and plasma samples were collected at 10 min, 30 min, 1 h, 2 h, 4 h, 8 h, 24 h, 48 h, 72 h, and 7 days post-administration. Concentrations of maraciclatide in plasma were assayed using the LC-MS method (LOQ was 0.5 ng/ml). Urine was also collected at the same time points (if possible) up to 24 h post-administration. Faecal samples were collected as voided for up to 24 h post-administration. Assayed samples for ^99mTc-maraciclatide content were then measured using a gamma counter.
(§2) Concentrations of maraciclatide in plasma were assayed using the LC-MS method (LOQ was 0.5 ng/ml). The mean apparent terminal elimination half-life was approximately 1 h. Overall, systemic clearance was approximately 6.7 ml/min/kg, whilst the mean apparent volume of distribution was approximately 520 ml/kg. The majority of ^99mTc activity was excreted through the urinary pathway and GI tract, 55% and 16%, respectively.

[5] = test system: healthy volunteers; experiment: clinical; parameters: species or system human; conditions: in vivo, iv
Protocol: as §1, §2

C/C(=N\O)C(C)(C)NCCC(CCNC(=O)CCCC(=O)NCCCC[C@@H]1NC(=O)CSC[C@@H](C(=O)NCCOCCOCCOCCNC(=O)COCC(N)=O)NC(=O)[C@H](Cc2ccccc2)NC(=O)[C@@H]2CSSC[C@H](NC1=O)C(=O)N[C@@H](CCCNC(=N)N)C(=O)NCC(=O)N[C@@H](CC(=O)O)C(=O)N2)CCNC(C)(C)/C(C)=N/O (stereo partly shown) [Maraciclatide] ({CH2CO}-K([Glutaryl-X1])CRGDCFC-X2; disulfide 2-6; thioether N-8; N-terminus and C-terminus assumed)
metabolites in urine [1]: no metabolites were detected
species observed in urine samples (in-vivo stability) [1]: Only intact maraciclatide was observed
Abdominal pain: Cause of AE ([2]; 15 μg maraciclatide (n = 8)): IMP
Blood phosphate decrease: No. with AEs ([2]; 15 μg maraciclatide (n = 8)): 0
Cardiac disorder: No. of AEs ([2]; 15 μg maraciclatide (n = 8)): 0
Cardiac disorder: No. with AEs ([2]; 15 μg maraciclatide (n = 8)): 0
Contact dermatitis: Cause of AE ([2]; 15 μg maraciclatide (n = 8)): Procedural complication
Contact dermatitis: No. of AEs ([2]; 15 μg maraciclatide (n = 8)): 1
Contact dermatitis: No. with AEs ([2]; 15 μg maraciclatide (n = 8)): 1
Crystal urine present: No. of AEs ([2]; 15 μg maraciclatide (n = 8)): 0
Crystal urine present: No. with AEs ([2]; 15 μg maraciclatide (n = 8)): 0
Diarrhoea: Cause of AE ([2]; 15 μg maraciclatide (n = 8)): IMP
Diarrhoea: No. of AEs ([2]; 15 μg maraciclatide (n = 8)): 1
Diarrhoea: No. with AEs ([2]; 15 μg maraciclatide (n = 8)): 1
Dizziness: Cause of AE ([2]; 15 μg maraciclatide (n = 8)): IMP
Dizziness: No. of AEs ([2]; 15 μg maraciclatide (n = 8)): 1
Dizziness: No. with AEs ([2]; 15 μg maraciclatide (n = 8)): 1
ECG PR shortened: No. of AEs ([2]; 15 μg maraciclatide (n = 8)): 0
ECG PR shortened: No. with AEs ([2]; 15 μg maraciclatide (n = 8)): 0
ECG QRS complex prolonged: No. of AEs ([2]; 15 μg maraciclatide (n = 8)): 0
ECG QRS complex prolonged: No. with AEs ([2]; 15 μg maraciclatide (n = 8)): 0
Herpes simplex virus: No. with AEs ([2]; 15 μg maraciclatide (n = 8)): 0
Hyperkalaemia: No. of AEs ([2]; 15 μg maraciclatide (n = 8)): 0
Hyperkalaemia: No. with AEs ([2]; 15 μg maraciclatide (n = 8)): 0
Hypoaesthesia: Cause of AE ([2]; 15 μg maraciclatide (n = 8)): IMP
Hypoaesthesia: No. of AEs ([2]; 15 μg maraciclatide (n = 8)): 1
Hypoaesthesia: No. with AEs ([2]; 15 μg maraciclatide (n = 8)): 1
Infection: No. of AEs ([2]; 15 μg maraciclatide (n = 8)): 1
Infection: No. with AEs ([2]; 15 μg maraciclatide (n = 8)): 1
Blood phosphate decrease: No. with AEs ([2]; 75 μg maraciclatide (n = 8)): 1
Cardiac disorder: No. of AEs ([2]; 75 μg maraciclatide (n = 8)): 1
Cardiac disorder: No. with AEs ([2]; 75 μg maraciclatide (n = 8)): 1
Crystal urine present: No. of AEs ([2]; 75 μg maraciclatide (n = 8)): 0
Crystal urine present: No. with AEs ([2]; 75 μg maraciclatide (n = 8)): 0
Dizziness: No. of AEs ([2]; 75 μg maraciclatide (n = 8)): 0
Dizziness: No. with AEs ([2]; 75 μg maraciclatide (n = 8)): 0
ECG PR shortened: No. of AEs ([2]; 75 μg maraciclatide (n = 8)): 0
ECG PR shortened: No. with AEs ([2]; 75 μg maraciclatide (n = 8)): 0
ECG QRS complex prolonged: Cause of AE ([2]; 75 μg maraciclatide (n = 8)): Unrelated medical condition
ECG QRS complex prolonged: No. of AEs ([2]; 75 μg maraciclatide (n = 8)): 1
ECG QRS complex prolonged: No. with AEs ([2]; 75 μg maraciclatide (n = 8)): 1
Herpes simplex virus: No. with AEs ([2]; 75 μg maraciclatide (n = 8)): 0
Hyperkalaemia: No. of AEs ([2]; 75 μg maraciclatide (n = 8)): 0
Hyperkalaemia: No. with AEs ([2]; 75 μg maraciclatide (n = 8)): 0
Hypoaesthesia: No. of AEs ([2]; 75 μg maraciclatide (n = 8)): 0
Hypoaesthesia: No. with AEs ([2]; 75 μg maraciclatide (n = 8)): 0
Hyporeflexia: Cause of AE ([2]; 75 μg maraciclatide (n = 8)): Other
Hyporeflexia: No. of AEs ([2]; 75 μg maraciclatide (n = 8)): 1
Hyporeflexia: No. with AEs ([2]; 75 μg maraciclatide (n = 8)): 1
Infection: No. of AEs ([2]; 75 μg maraciclatide (n = 8)): 0
Infection: No. with AEs ([2]; 75 μg maraciclatide (n = 8)): 0
Blood phosphate decrease: No. with AEs ([2]; 150 μg maraciclatide (n = 8)): 0
Cardiac disorder: No. of AEs ([2]; 150 μg maraciclatide (n = 8)): 0
Cardiac disorder: No. with AEs ([2]; 150 μg maraciclatide (n = 8)): 0
Crystal urine present: Cause of AEs ([2]; 150 μg maraciclatide (n = 8)): IMP
Crystal urine present: No. of AEs ([2]; 150 μg maraciclatide (n = 8)): 1
Crystal urine present: No. with AEs ([2]; 150 μg maraciclatide (n = 8)): 1
Diarrhoea: No. of AEs ([2]; 150 μg maraciclatide (n = 8)): 0
Diarrhoea: No. with AEs ([2]; 150 μg maraciclatide (n = 8)): 0
Dizziness: No. of AEs ([2]; 150 μg maraciclatide (n = 8)): 0
Dizziness: No. with AEs ([2]; 150 μg maraciclatide (n = 8)): 0
ECG PR shortened: No. of AEs ([2]; 150 μg maraciclatide (n = 8)): 0
ECG PR shortened: No. with AEs ([2]; 150 μg maraciclatide (n = 8)): 0
ECG QRS complex prolonged: No. of AEs ([2]; 150 μg maraciclatide (n = 8)): 0
ECG QRS complex prolonged: No. with AEs ([2]; 150 μg maraciclatide (n = 8)): 0
Herpes simplex virus: No. with AEs ([2]; 150 μg maraciclatide (n = 8)): 1
Hyperkalaemia: Cause of AEs ([2]; 150 μg maraciclatide (n = 8)): Procedural complication
Hyperkalaemia: No. of AEs ([2]; 150 μg maraciclatide (n = 8)): 1
Hyperkalaemia: No. with AEs ([2]; 150 μg maraciclatide (n = 8)): 1
Hypoaesthesia: No. of AEs ([2]; 150 μg maraciclatide (n = 8)): 0
Hypoaesthesia: No. with AEs ([2]; 150 μg maraciclatide (n = 8)): 0
Hyporeflexia: No. of AEs ([2]; 150 μg maraciclatide (n = 8)): 0
Hyporeflexia: No. with AEs ([2]; 150 μg maraciclatide (n = 8)): 0
Infection: No. of AEs ([2]; 150 μg maraciclatide (n = 8)): 1
Infection: No. with AEs ([2]; 150 μg maraciclatide (n = 8)): 1
AEs deemed related to maraciclatide (number) ([2]; in vivo): 7
AEs deemed related to maraciclatide (percent) ([2]; in vivo): 23%
affinity to αvβ3 [3]: nanomolar affinity
Vd [4]: ~0.52 L/kg
clearance [4]: ~6.7 mL/min/kg
half-life [4]: ~1 h
plasma concentration time course [5]: bi-exponential decline
